One test concerns the target T1, LR (Mac), LR 1–313 (Plenodomus lingam, UniProt Q9HGT7).
T1 construct: gene ops; full-length 1-313, C-terminal polyhistidine tag, codon-optimised synthetic gene, expressed in Leishmania tarentolae (LEXSY), DDM; likely trimer; residues 42-286 resolved
T1 sequence (Q9HGT7 1-313): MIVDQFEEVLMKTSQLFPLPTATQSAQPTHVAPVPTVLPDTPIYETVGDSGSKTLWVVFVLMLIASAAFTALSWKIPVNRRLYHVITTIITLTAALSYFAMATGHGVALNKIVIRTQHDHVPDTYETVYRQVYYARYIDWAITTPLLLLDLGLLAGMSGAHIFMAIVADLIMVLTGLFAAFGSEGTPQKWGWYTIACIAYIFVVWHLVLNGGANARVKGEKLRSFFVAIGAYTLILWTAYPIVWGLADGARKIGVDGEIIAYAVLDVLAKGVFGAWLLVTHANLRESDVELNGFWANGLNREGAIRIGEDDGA
The test is described as follows: X-ray crystallography, […] Å. The settings on record: covalent; retinal Schiff base at K270; pH 7.0. Type of test: binding.

The target of the next test is T2, LR 49–313 (Plenodomus lingam, UniProt Q9HGT7).
T2 construct: gene ops; N-terminally truncated 49-313, C-terminal polyhistidine tag, codon-optimised synthetic gene, expressed in Leishmania tarentolae (LEXSY), DDM; mostly monomer
T2 sequence (Q9HGT7 49-313): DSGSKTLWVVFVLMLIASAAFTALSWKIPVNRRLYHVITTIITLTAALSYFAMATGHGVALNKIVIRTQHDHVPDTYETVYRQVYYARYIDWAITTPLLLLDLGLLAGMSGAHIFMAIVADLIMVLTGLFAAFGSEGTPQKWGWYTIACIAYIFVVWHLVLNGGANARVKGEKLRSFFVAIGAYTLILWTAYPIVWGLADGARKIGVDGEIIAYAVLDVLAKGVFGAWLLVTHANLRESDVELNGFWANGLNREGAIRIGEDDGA
Kind of test: time-resolved absorption spectroscopy (photocycle). Type of test: binding. Particulars: covalent; DDM micelles; 5 μM all-trans-retinal added at solubilization.

Test [1] has as its target Leptosphaeria rhodopsin LR (Mac), full-length (residues 1–313) (Leptosphaeria maculans). The test is described as follows: cross-linking; glutaraldehyde vapor for 30 min, then gradient SDS-PAGE 18.5-8%; protein in DDM micelles; untreated samples as control.
Test [2] shares this target. Kind of test: SEC; Superdex 200 Increase 10/300 GL, 0.05% DDM micelles; masses calculated from retention volume at pH 8.0 (results; the methods give a SEC buffer of pH 6.5, 0.2 M NaCl); trimer to monomers.
Test [3] addresses Leptosphaeria rhodopsin LR, N-terminally truncated (residues 49–313) (Leptosphaeria maculans). Kind of test: cross-linking; glutaraldehyde vapor for 30 min, then gradient SDS-PAGE 18.5-8%; protein in DDM micelles; untreated samples as control.
Test [4] shares this target. Kind of test: SEC; Superdex 200 Increase 10/300 GL, 0.05% DDM micelles; masses calculated from retention volume at pH 8.0 (results; the methods give a SEC buffer of pH 6.5, 0.2 M NaCl); trimer to monomers.

In the case of `CC1=C(/C=C/C(C)=C/C=C/C(C)=C/C=O)C(C)(C)CCC1` [ATR, all-trans-retinal], at LR (Mac), LR 1–313, the “X-ray crystallography, 2.2 Å” value is recorded as “retinal chromophore covalently attached to the K270 on the TM7”. At LR 49–313, the “time-resolved absorption spectroscopy (photocycle)” value is “Both full-length and truncated constructs of LR in DDM micelles exhibit almost similar relaxation time”.
For “Leptosphaeria rhodopsin LR (Mac), full-length (residues 1–313) (natural protein)”, the stoichiometry N (as a rule, the number of molecules, sites or subunits per partner or assembly) in test [1] was less than 3. For the same compound, in test [2], the ratio between monomers and trimers (monomers:trimers) is 0.4; the stoichiometry N is 3.
In turn, “Leptosphaeria rhodopsin LR, N-terminally truncated (residues 49–313) (domain or fragment)” came in with a stoichiometry N in test [3] of less than 3. Further, in test [4], the ratio between monomers and trimers (monomers:trimers) is 40; the stoichiometry N was 3.
